In patent US9120862:
Bridge positions count the residues as written; N and C are the ends. Ends that are not written are not given here.

Assays:
[1] = molecular target: monoclonal antibody 3C10 (produced by hybridoma cell line ATCC deposit designation PTA-9638); assay: FCS competition: 2 nM Alexa488-PIVKA-II (13-27) tracer + 10 nM mAb 3C10, competitor titrated; apparent diffusion coefficient of the tracer
[2] = molecular target: monoclonal antibody 3C10 (produced by hybridoma cell line ATCC deposit designation PTA-9638); assay: FCS competition: 2 nM Alexa488-PIVKA-II (13-27) premixed with 10 nM mAb 3C10, unlabelled PIVKA-II (13-27) added, overnight; D of the tracer (high D = tracer displaced)

B1: PIVKA-II (13-27) peptide, unlabelled (positive control competitor) (peptide)
peptide: LERECVEETCSYEEA
modifications: disulfide 5-10 (inferred)
- IC50 (read off the curve) [1]: 50 nM
- Apparent Diffusion Coefficient (D) [2]: 174 um^2/sec
